The values below come from article doi:10.1101/2023.06.24.546380.

Assay [1] has as its target Zonula occludens scaffold protein ZO1 (UniProt Q07157). Briefly: partitioning of actin into ZO1 surface condensates on supported lipid bilayers.
The target of assay [2] is intracellular domain of the tight junction receptor JAM-A (UniProt Q9Y624).
UniProt Q9Y624, sequence (Q9Y624 28-299): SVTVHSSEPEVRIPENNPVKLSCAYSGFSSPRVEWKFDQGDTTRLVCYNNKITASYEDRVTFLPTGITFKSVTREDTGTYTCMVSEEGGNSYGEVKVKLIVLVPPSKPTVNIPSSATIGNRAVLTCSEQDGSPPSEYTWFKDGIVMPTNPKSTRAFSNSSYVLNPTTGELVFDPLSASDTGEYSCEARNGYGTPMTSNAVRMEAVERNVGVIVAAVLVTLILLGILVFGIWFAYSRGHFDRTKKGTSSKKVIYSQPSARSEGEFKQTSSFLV

UniProt Q07157, sequence (Q07157 whole entry, the tested form may be a part): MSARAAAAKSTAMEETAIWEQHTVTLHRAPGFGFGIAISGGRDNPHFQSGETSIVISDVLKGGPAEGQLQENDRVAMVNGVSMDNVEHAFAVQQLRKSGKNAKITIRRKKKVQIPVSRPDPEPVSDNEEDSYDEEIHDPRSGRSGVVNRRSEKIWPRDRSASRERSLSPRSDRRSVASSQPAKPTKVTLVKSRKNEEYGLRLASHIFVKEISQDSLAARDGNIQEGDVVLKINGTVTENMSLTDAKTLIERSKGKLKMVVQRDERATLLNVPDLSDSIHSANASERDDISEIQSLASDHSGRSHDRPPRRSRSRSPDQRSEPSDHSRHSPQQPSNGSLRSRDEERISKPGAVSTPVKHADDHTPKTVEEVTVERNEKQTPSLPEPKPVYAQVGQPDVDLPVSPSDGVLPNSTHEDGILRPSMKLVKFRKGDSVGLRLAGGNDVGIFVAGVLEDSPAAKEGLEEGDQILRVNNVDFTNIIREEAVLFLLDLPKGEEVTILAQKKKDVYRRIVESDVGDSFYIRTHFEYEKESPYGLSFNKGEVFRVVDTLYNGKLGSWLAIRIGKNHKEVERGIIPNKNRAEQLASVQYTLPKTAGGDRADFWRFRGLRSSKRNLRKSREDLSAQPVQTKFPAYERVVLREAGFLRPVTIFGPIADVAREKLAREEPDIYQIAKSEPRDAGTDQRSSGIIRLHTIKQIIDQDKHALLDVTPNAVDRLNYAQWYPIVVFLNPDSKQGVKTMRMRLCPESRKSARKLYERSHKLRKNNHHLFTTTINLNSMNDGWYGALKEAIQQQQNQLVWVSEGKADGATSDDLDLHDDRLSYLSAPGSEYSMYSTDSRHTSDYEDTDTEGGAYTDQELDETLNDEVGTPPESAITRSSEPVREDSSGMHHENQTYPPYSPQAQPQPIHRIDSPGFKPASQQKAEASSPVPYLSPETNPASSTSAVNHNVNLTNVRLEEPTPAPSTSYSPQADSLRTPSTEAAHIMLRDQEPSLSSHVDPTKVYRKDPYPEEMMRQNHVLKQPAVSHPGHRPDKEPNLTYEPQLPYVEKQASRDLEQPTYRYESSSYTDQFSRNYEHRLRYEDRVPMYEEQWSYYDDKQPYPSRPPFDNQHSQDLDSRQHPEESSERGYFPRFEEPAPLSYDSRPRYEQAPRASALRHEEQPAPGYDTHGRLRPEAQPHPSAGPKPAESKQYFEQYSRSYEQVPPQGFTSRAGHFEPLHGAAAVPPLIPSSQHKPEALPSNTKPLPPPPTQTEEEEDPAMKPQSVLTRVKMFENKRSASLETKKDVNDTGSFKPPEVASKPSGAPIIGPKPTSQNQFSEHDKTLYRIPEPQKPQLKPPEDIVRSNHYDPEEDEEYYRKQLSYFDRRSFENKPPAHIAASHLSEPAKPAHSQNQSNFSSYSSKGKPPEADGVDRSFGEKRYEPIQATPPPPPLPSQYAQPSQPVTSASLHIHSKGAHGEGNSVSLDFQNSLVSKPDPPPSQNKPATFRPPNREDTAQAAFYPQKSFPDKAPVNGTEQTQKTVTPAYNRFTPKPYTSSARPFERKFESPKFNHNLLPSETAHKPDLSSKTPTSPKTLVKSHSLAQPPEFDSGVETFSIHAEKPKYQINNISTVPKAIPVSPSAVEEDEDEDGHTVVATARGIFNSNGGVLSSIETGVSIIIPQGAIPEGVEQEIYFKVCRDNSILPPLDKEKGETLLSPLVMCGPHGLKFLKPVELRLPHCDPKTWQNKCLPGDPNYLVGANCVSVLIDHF

As for “G-actin-Alexa Fluor 647 (from UniProt P68135 1-377) (natural protein)”, the fold enrichment in the surface condensates in assay [1] worked out at 5 fold.

Regarding “Zonula occludens scaffold protein ZO1 (from UniProt Q07157 1-1748) (natural protein)”, the fold enrichment in the dense ZO1 phase in assay [2] was found to be 2 fold.
